Square brackets hold non-standard residues; d marks the D form. Ends that are not written are not given here. pT = C[C@@H](OP(=O)(O)O)[C@H](N)C(=O)O; pS = N[C@@H](COP(=O)(O)O)C(=O)O
T1: APLF FHA domain (residues 1-106) (UniProt Q8IW19 1-106)
T1 chain: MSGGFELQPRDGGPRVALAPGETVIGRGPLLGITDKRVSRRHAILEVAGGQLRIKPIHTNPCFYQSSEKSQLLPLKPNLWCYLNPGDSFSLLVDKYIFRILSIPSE

B1: XRCC4 229-237 peptide phosphorylated on Thr233 (peptide)
peptide: YDESTDEES
HELM: PEPTIDE1{Y.D.E.S.[C[C@@H](OP(=O)(O)O)[C@H](N[*:1])C(=O)[*:2]].D.E.E.S.[am]}$$$$V2.0; N-terminus assumed
SMILES: C[C@@H](OP(=O)(O)O)[C@H](NC(=O)[C@H](CO)NC(=O)[C@H](CCC(=O)O)NC(=O)[C@H](CC(=O)O)NC(=O)[C@@H](N)Cc1ccc(O)cc1)C(=O)N[C@@H](CC(=O)O)C(=O)N[C@@H](CCC(=O)O)C(=O)N[C@@H](CCC(=O)O)C(=O)N[C@@H](CO)C(N)=O
B2: XRCC4 229-237 peptide phosphorylated on Ser232 and Thr233 (peptide)
peptide: YDESTDEES
HELM: PEPTIDE1{Y.D.E.[O=C([C@H](COP(=O)(O)O)N[*:1])[*:2]].[C[C@@H](OP(=O)(O)O)[C@H](N[*:1])C(=O)[*:2]].D.E.E.S.[am]}$$$$V2.0; N-terminus assumed
SMILES: C[C@@H](OP(=O)(O)O)[C@H](NC(=O)[C@H](COP(=O)(O)O)NC(=O)[C@H](CCC(=O)O)NC(=O)[C@H](CC(=O)O)NC(=O)[C@@H](N)Cc1ccc(O)cc1)C(=O)N[C@@H](CC(=O)O)C(=O)N[C@@H](CCC(=O)O)C(=O)N[C@@H](CCC(=O)O)C(=O)N[C@@H](CO)C(N)=O
B3: XRCC1 515-529 peptide phosphorylated on Ser518, Thr519 and Thr523 (peptide)
peptide: YAG[pS][pT]DEN[pT]DSEEHQ-NH2
modifications: N-terminus assumed
SMILES: C[C@H](NC(=O)[C@@H](N)Cc1ccc(O)cc1)C(=O)NCC(=O)N[C@@H](COP(=O)(O)O)C(=O)N[C@H](C(=O)N[C@@H](CC(=O)O)C(=O)N[C@@H](CCC(=O)O)C(=O)N[C@@H](CC(N)=O)C(=O)N[C@H](C(=O)N[C@@H](CC(=O)O)C(=O)N[C@@H](CO)C(=O)N[C@@H](CCC(=O)O)C(=O)N[C@@H](CCC(=O)O)C(=O)N[C@@H](Cc1c[nH]cn1)C(=O)N[C@@H](CCC(N)=O)C(N)=O)[C@@H](C)OP(=O)(O)O)[C@@H](C)OP(=O)(O)O
B4: XRCC1 515-529 peptide phosphorylated on Thr519 (peptide)
peptide: YAGSTDENTDSEEHQ
HELM: PEPTIDE1{Y.A.G.S.[C[C@@H](OP(=O)(O)O)[C@H](N[*:1])C(=O)[*:2]].D.E.N.T.D.S.E.E.H.Q.[am]}$$$$V2.0; N-terminus assumed
SMILES: C[C@H](NC(=O)[C@@H](N)Cc1ccc(O)cc1)C(=O)NCC(=O)N[C@@H](CO)C(=O)N[C@H](C(=O)N[C@@H](CC(=O)O)C(=O)N[C@@H](CCC(=O)O)C(=O)N[C@@H](CC(N)=O)C(=O)N[C@H](C(=O)N[C@@H](CC(=O)O)C(=O)N[C@@H](CO)C(=O)N[C@@H](CCC(=O)O)C(=O)N[C@@H](CCC(=O)O)C(=O)N[C@@H](Cc1c[nH]cn1)C(=O)N[C@@H](CCC(N)=O)C(N)=O)[C@@H](C)O)[C@@H](C)OP(=O)(O)O
B5: XRCC4 229-237 peptide phosphorylated on Ser232, Thr233 and Ser237 (peptide)
peptide: YDE[pS][pT]DEE[pS]-NH2
modifications: N-terminus assumed
SMILES: C[C@@H](OP(=O)(O)O)[C@H](NC(=O)[C@H](COP(=O)(O)O)NC(=O)[C@H](CCC(=O)O)NC(=O)[C@H](CC(=O)O)NC(=O)[C@@H](N)Cc1ccc(O)cc1)C(=O)N[C@@H](CC(=O)O)C(=O)N[C@@H](CCC(=O)O)C(=O)N[C@@H](CCC(=O)O)C(=O)N[C@@H](COP(=O)(O)O)C(N)=O
B6: XRCC1 515-529 peptide phosphorylated on Ser518 and Thr519 (peptide)
peptide: YAGSTDENTDSEEHQ
HELM: PEPTIDE1{Y.A.G.[O=C([C@H](COP(=O)(O)O)N[*:1])[*:2]].[C[C@@H](OP(=O)(O)O)[C@H](N[*:1])C(=O)[*:2]].D.E.N.T.D.S.E.E.H.Q.[am]}$$$$V2.0; N-terminus assumed
SMILES: C[C@H](NC(=O)[C@@H](N)Cc1ccc(O)cc1)C(=O)NCC(=O)N[C@@H](COP(=O)(O)O)C(=O)N[C@H](C(=O)N[C@@H](CC(=O)O)C(=O)N[C@@H](CCC(=O)O)C(=O)N[C@@H](CC(N)=O)C(=O)N[C@H](C(=O)N[C@@H](CC(=O)O)C(=O)N[C@@H](CO)C(=O)N[C@@H](CCC(=O)O)C(=O)N[C@@H](CCC(=O)O)C(=O)N[C@@H](Cc1c[nH]cn1)C(=O)N[C@@H](CCC(N)=O)C(N)=O)[C@@H](C)O)[C@@H](C)OP(=O)(O)O
B7: XRCC1 515-529 peptide phosphorylated on Ser518, Thr519, Thr523 and Ser525 (peptide)
peptide: YAG[pS][pT]DEN[pT]D[pS]EEHQ-NH2
modifications: N-terminus assumed
SMILES: C[C@H](NC(=O)[C@@H](N)Cc1ccc(O)cc1)C(=O)NCC(=O)N[C@@H](COP(=O)(O)O)C(=O)N[C@H](C(=O)N[C@@H](CC(=O)O)C(=O)N[C@@H](CCC(=O)O)C(=O)N[C@@H](CC(N)=O)C(=O)N[C@H](C(=O)N[C@@H](CC(=O)O)C(=O)N[C@@H](COP(=O)(O)O)C(=O)N[C@@H](CCC(=O)O)C(=O)N[C@@H](CCC(=O)O)C(=O)N[C@@H](Cc1c[nH]cn1)C(=O)N[C@@H](CCC(N)=O)C(N)=O)[C@@H](C)OP(=O)(O)O)[C@@H](C)OP(=O)(O)O
B8: XRCC1 515-529 peptide phosphorylated solely on Thr523 (peptide)
peptide: YAGSTDENTDSEEHQ
HELM: PEPTIDE1{Y.A.G.S.T.D.E.N.[C[C@@H](OP(=O)(O)O)[C@H](N[*:1])C(=O)[*:2]].D.S.E.E.H.Q.[am]}$$$$V2.0; N-terminus assumed
SMILES: C[C@H](NC(=O)[C@@H](N)Cc1ccc(O)cc1)C(=O)NCC(=O)N[C@@H](CO)C(=O)N[C@H](C(=O)N[C@@H](CC(=O)O)C(=O)N[C@@H](CCC(=O)O)C(=O)N[C@@H](CC(N)=O)C(=O)N[C@H](C(=O)N[C@@H](CC(=O)O)C(=O)N[C@@H](CO)C(=O)N[C@@H](CCC(=O)O)C(=O)N[C@@H](CCC(=O)O)C(=O)N[C@@H](Cc1c[nH]cn1)C(=O)N[C@@H](CCC(N)=O)C(N)=O)[C@@H](C)OP(=O)(O)O)[C@@H](C)O
B9: YAGSTDENpTDpSEEHQ (peptide)
chain: YAGSTDENTDSEEHQ
HELM: PEPTIDE1{Y.A.G.S.T.D.E.N.[C[C@@H](OP(=O)(O)O)[C@H](N[*:1])C(=O)[*:2]].D.[O=C([C@H](COP(=O)(O)O)N[*:1])[*:2]].E.E.H.Q.[am]}$$$$V2.0; N-terminus assumed
SMILES: C[C@H](NC(=O)[C@@H](N)Cc1ccc(O)cc1)C(=O)NCC(=O)N[C@@H](CO)C(=O)N[C@H](C(=O)N[C@@H](CC(=O)O)C(=O)N[C@@H](CCC(=O)O)C(=O)N[C@@H](CC(N)=O)C(=O)N[C@H](C(=O)N[C@@H](CC(=O)O)C(=O)N[C@@H](COP(=O)(O)O)C(=O)N[C@@H](CCC(=O)O)C(=O)N[C@@H](CCC(=O)O)C(=O)N[C@@H](Cc1c[nH]cn1)C(=O)N[C@@H](CCC(N)=O)C(N)=O)[C@@H](C)OP(=O)(O)O)[C@@H](C)O

What follows are binders tested against aprataxin FHA domain K38A (residues 1-105) (assay: ITC).
Sequence of aprataxin FHA domain K38A (residues 1-105) (chain, as listed by the source K38A): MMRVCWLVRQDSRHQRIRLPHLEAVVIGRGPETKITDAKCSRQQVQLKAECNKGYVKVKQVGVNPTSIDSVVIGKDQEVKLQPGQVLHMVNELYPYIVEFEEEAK

Binder	Kd
B1	6.8 µM
B2	1.9 µM
B3	3.8 µM
B4	46.3 µM
B5	1.3 µM
B6	12.8 µM

What follows are binders tested against aprataxin FHA domain (residues 1-105) (assay: ITC).
Sequence of aprataxin FHA domain (residues 1-105) (chain, as listed by the source): as the sequence (chain, as listed by the source K38A) above, with A38K counted along it

Binder	Kd
B1	2.1 µM
B2	0.25 µM
B3	0.5 µM
B7	0.87 µM
B4	17 µM
B5	0.14 µM
B8	42 µM
B9	33 µM
B6	1.5 µM

Target: T1, APLF FHA domain (residues 1-106)
Assay: ITC

Kd	Binder
3.6 µM	B1
0.47 µM	B2
11 µM	B3
11 µM	B7
30 µM	B4
0.42 µM	B5
35 µM	B8
17 µM	B9
8.1 µM	B6

From publication PMC4655838 (2015)
